Laboratory results published in article PMC10053435, “Crystal structures of dimeric and heptameric mtHsp60 reveal the mechanism of chaperonin inactivation” (Life Science Alliance, 2023).

Legend:
[1] = biological target: the molecule itself; test: SEC; protein homogenised and purified at 4°C (LT); Superdex S200pg 16/600, 25 mM Tris-HCl pH 7.6, 150 mM NaCl, 1 ml/min
[2] = biological target: the molecule itself; test: SEC; protein homogenised and purified at room temperature (RT, 25°C); Superdex S200pg 16/600, 25 mM Tris-HCl pH 7.6, 150 mM NaCl, 1 ml/min

B1: naïve EcHsp60^ΔC (C-terminal GGM repeats truncated, Δ527–552) (domain or fragment)
chain: MFRLPTVMKQVRPVCRALAPHLTRAYAKDVKFGADARALMLQGVDLLADAVAVTMGPKGRTVIIEQSWGSPKVTKDGVTVAKSIDLKDKYKNIGAKLVQDVANNTNEEAGDGTTTATVLARAIAKEGFDTISKGANPVEIRRGVMMAVETVIKELKNLSKPVTTPEEIAQVATISANGDVEIGNIISNAMKKVGRKGVITVKDGKTLHDELEIIEGMKFDRGYISPYFINTAKGQKCEFQDAYLLLSEKKISSVQSIVPALEIANQHRKPLVIVAEDVDGEALSTLVLNRLKVGLQVVAVKAPGFGDNRKNQLRDMAVATGGTVFGDEAVGLALEDIQAHDFGKIGEVQITKDDTLLLKGGGSPAEVEKRAAEIVEQLENTTSDYEKEKLNERLAKLSDGVAVLKVGGTSDVEVNEKKDRVTDALNATRAAVEEGIVPGGGCALLRCIPSLDAIQTANADQKIGVEIIRRALRIPAMTIAKNAGVEGSLVVEKILQGSAELGYDAMQGEYVNMVEKGIIDPTKVVRTALLDAAGVASLLSTAEAVVTEIPKE
- stoichiometry N [1]: 7

B2: naïve Epinephelus coioides mtHsp60 (EcHsp60), with the mitochondrial importing signal (natural protein)
chain: MFRLPTVMKQVRPVCRALAPHLTRAYAKDVKFGADARALMLQGVDLLADAVAVTMGPKGRTVIIEQSWGSPKVTKDGVTVAKSIDLKDKYKNIGAKLVQDVANNTNEEAGDGTTTATVLARAIAKEGFDTISKGANPVEIRRGVMMAVETVIKELKNLSKPVTTPEEIAQVATISANGDVEIGNIISNAMKKVGRKGVITVKDGKTLHDELEIIEGMKFDRGYISPYFINTAKGQKCEFQDAYLLLSEKKISSVQSIVPALEIANQHRKPLVIVAEDVDGEALSTLVLNRLKVGLQVVAVKAPGFGDNRKNQLRDMAVATGGTVFGDEAVGLALEDIQAHDFGKIGEVQITKDDTLLLKGGGSPAEVEKRAAEIVEQLENTTSDYEKEKLNERLAKLSDGVAVLKVGGTSDVEVNEKKDRVTDALNATRAAVEEGIVPGGGCALLRCIPSLDAIQTANADQKIGVEIIRRALRIPAMTIAKNAGVEGSLVVEKILQGSAELGYDAMQGEYVNMVEKGIIDPTKVVRTALLDAAGVASLLSTAEAVVTEIPKEEKEMPGGMGGMGGMGGMGGMGGGMGF
- stoichiometry N [1]: 2
- stoichiometry N [2]: 7
